Values quoted from earlier work as cited in article PMC3981547.
Read-outs that look alike come from different tables or passages of the source. Values belong to the substance of their own block, whether it stands above or below them.

Key:
[1] = target: γc (Homo sapiens) (UniProt P31785)
[2] = target: IL-2Rα (Homo sapiens) (UniProt P01589)
[3] = target: IL-2Rβ/γc (Homo sapiens) (UniProt P14784)
[4] = target: IL-2Rβ (Homo sapiens) (UniProt P14784)
[5] = target: IL-4Rα ECD (Homo sapiens) (UniProt P24394); assay: ITC
[6] = target: IL-13Rα1 (Homo sapiens) (UniProt P78552)
[7] = target: IL-13Rα1 (Homo sapiens) (UniProt P78552); remark: listed apart in the source

Chain of UniProt P78552 (P78552 22-343): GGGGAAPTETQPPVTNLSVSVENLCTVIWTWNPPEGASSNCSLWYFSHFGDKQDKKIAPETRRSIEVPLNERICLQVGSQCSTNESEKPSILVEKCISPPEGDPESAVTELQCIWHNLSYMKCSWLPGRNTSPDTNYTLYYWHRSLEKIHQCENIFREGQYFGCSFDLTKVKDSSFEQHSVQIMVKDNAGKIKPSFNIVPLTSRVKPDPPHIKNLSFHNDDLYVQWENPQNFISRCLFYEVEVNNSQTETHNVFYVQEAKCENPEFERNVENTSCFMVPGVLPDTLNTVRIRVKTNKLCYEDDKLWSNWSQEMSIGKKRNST
Chain of UniProt P31785 (P31785 23-262): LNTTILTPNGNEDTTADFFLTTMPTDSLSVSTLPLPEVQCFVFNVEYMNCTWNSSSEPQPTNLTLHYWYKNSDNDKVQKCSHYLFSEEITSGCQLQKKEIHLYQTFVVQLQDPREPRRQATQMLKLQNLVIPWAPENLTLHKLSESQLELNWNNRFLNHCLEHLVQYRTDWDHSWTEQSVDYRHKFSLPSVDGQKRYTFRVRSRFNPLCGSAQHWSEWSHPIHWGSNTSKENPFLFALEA
Chain of UniProt P01589 (P01589 22-240): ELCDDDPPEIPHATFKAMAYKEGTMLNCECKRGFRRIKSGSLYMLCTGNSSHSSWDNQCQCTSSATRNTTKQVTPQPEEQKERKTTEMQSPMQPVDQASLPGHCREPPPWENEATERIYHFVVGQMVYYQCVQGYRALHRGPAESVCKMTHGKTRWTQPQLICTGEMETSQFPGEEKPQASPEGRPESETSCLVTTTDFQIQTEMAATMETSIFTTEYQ
Chain of UniProt P24394 (P24394 26-232): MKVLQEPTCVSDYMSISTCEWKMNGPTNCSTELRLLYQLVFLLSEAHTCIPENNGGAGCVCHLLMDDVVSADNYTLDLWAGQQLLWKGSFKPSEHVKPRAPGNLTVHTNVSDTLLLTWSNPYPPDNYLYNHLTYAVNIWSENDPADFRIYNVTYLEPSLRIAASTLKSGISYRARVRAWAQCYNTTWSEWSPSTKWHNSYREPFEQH

- Kd [1]: 700000 nM
- Kd [2]: 10 nM
- Kd [3]: 1 nM
- Kd [4]: 100 nM
Substance: IL-2 (from UniProt P60568)

- Kd [5]: 1 nM
Substance: IL-4 (from UniProt P05112)

- Kd [6]: 487 nM
Substance: IL-4/IL-4Rα (from UniProt P05112)

- Kd [7]: 30 nM
Substance: IL-13 (from UniProt P35225)
